The record followed here is doi:10.1101/632075, “Determinants of FtsZ C-terminal linker-dependent regulation of cell wall metabolism in Caulobacter crescentus” (bioRxiv, 2019).

The data set deals with the molecule itself. Put plainly: negative-stain transmission electron microscopy of polymers; 4 µM protein with 2 mM GTP for 16 minutes in 50 mM HEPES-KOH pH 7.2, 300 mM KCl, 10 mM MgCl2, 0.1 mM EDTA; spotted on carbon coated grids, uranyl formate stain.

B1: Escherichia coli FtsZ (natural protein, E. coli, UniProt P0A9A6 1-383, looked up)
chain: MFEPMELTNDAVIKVIGVGGGGGNAVEHMVRERIEGVEFFAVNTDAQALRKTAVGQTIQIGSGITKGLGAGANPEVGRNAADEDRDALRAALEGADMVFIAAGMGGGTGTGAAPVVAEVAKDLGILTVAVVTKPFNFEGKKRMAFAEQGITELSKHVDSLITIPNDKLLKVLGRGISLLDAFGAANDVLKGAVQGIAELITRPGLMNVDFADVRTVMSEMGYAMMGSGVASGEDRAEEAAEMAISSPLLEDIDLSGARGVLVNITAGFDLRLDEFETVGNTIRAFASDNATVVIGTSLDPDMNDELRVTVVATGIGMDKRPEITLVTNKQVQQPVMDRYQQHGMAPLTQEQKPVAKVVNDNAPQTAKEPDYLDIPAFLRKQAD
notes: FtsZ of Escherichia coli, wild type; No tag is named; also called EcFtsZ; source: E. coli Rosetta(DE3)pLysS, pET21 vector, purified (anion exchange, ammonium sulfate precipitation, SEC)
For the protein B1, the binding result is reported as “binds”.

B2: Caulobacter crescentus FtsZ (natural protein, C. crescentus, UniProt B8H080 1-508, looked up)
chain: MAISLSAPRTTELKPRIVVFGVGGAGGNAVNNMIEAGLEGVEFVVANTDAQQLQFAKTDRRIQLGVQITQGLGAGAHPEVGMSAAEESFPEIGEHLDGAHMVFITAGMGGGTGTGAAPIIAKCARERGILTVGVVTKPFHFEGRHRMRLADSGIQELQRYVDTLIVIPNQNLFRVANERTTFAEAFGMADQVLHSGVRSITDLMVLPGLINLDFADVRTVMTEMGKAMMGTGEGTGEDRALMAAQNAIANPLLDEVSLKGAKAVLVNVTGGMDMTLLEVDEAANAISDQVDPEANIIFGAAFDPSLEGVIRVSVVATGMDGASIAQIEPKPVSRNISAAPLIAETSRPAPQPEPARPTARYEAARPAERPVAFAPEPAPEPEIVMSAPQPEPEAELYYDEPTVAEEPRVSAAPARSVNRIVDPLVDDVAEEPLFPENNYYEERRPQKQGGFFSMFGGGRQRYEQQASAPQAQARSAQSARPQLQPIETPQADDAEDLEIPSFLRRLAN
notes: FtsZ of Caulobacter crescentus, wild type; regions: GTPase domain, C-terminal linker (CTL), C-terminal conserved peptide (CTC); No tag is named; also called CcFtsZ; WT FtsZ; source: E. coli Rosetta(DE3)pLysS, pET21 vector, purified (anion exchange, ammonium sulfate precipitation, SEC)
B2: the binding result is given as “binds”.
